Source: US20120269817A1 (Bayer, published 2012)

Tests used:
[1] = biological target: T1, human tissue factor pathway inhibitor (TFPI) (human, UniProt P10646 29-304, limits assumed); assay: cell-based or functional assay
T1 sequence (looked up): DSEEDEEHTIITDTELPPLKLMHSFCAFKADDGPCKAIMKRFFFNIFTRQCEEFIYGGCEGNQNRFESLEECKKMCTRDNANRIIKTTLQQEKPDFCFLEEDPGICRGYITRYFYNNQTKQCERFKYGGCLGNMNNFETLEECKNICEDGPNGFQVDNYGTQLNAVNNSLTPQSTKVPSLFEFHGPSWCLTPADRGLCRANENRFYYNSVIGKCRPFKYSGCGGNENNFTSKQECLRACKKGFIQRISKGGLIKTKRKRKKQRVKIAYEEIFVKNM

[2] = biological target: T1, human tissue factor pathway inhibitor …; assay: Biacore, TFPI on CM5 chip, Fab in mobile phase
Experimental: (§1) Purified Fab antibodies were used to determine EC₅₀ of anti-TFPI antibodies to human or mouse TFPI. EC₅₀ was assessed in an ELISA, similarly as described above. The results were analyzed using SoftMax. The binding affinity of anti-TFPI antibodies was determined in a Biacore assay. Briefly, the antigen, either human or mouse TFPI, was immobilized on the CM5-chips using the amine coupling kit (GE HealthCare) according to the instructions of the manufacturer. The amount of immobilized TFPI was adjusted to the mass of the antigen to give approximate 300 RU. The antibody Fabs were analyzed in mobile phase and at least five different concentrations (0.1, 0.4, 1.6, 6.4 and 25 nM) of the purified antibodies were used in the Biacore assay. The kinetics and binding affinity were calculated using Biacore T100 Evaluation software.

[3] = biological target: T2, mouse tissue factor pathway inhibitor (TFPI) (mouse, UniProt O54819 29-289, limits assumed); assay: Biacore, TFPI on CM5 chip, Fab in mobile phase
T2 construct: Bought protein; also called mouse TFPI; mTFPI
T2 sequence (looked up): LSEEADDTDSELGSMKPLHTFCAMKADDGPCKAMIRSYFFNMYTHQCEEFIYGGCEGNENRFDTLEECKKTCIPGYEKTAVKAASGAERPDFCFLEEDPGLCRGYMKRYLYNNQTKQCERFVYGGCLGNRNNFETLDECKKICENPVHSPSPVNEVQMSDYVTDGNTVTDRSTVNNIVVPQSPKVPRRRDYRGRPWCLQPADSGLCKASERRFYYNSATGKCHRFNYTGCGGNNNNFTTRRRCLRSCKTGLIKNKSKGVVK
Experimental: as §1

BSA = biological target: T3, BSA (bovine, UniProt P02769 25-607); assay: ELISA
T3 construct: also called bovine serum albumin
Experimental: (§2) To select antibody clones that bind to human TFPI, Fab genes of the phage clones from the second and third round of panning were subcloned into a bacterial expression vector and expressed in E. coli strain TG1. The bacterial lysate was added to the wells of the human TFPI-coated Maxisorp plates. After washing, HRP-conjugated goat anti-human Fab was used as a detection antibody and the plates were developed by adding AmplexRed (Invitrogen) with hydrogen peroxide. A signal of at least five-fold higher than the background was considered as positive. The cross reactivity of the anti-human TFPI antibodies to mouse TFPI was determined by a similar mouse TFPI-binding ELISA. The plates were coated with mouse TFPI (R&D System), BSA and lysozyme. The later two antigens were used as negative controls.

[4] = biological target: T1, human tissue factor pathway inhibitor …; assay: ELISA, Fab on coated TFPI
Experimental: as §2, §1

[5] = biological target: T2, mouse tissue factor pathway inhibitor …; assay: ELISA, Fab on coated TFPI
Experimental: as §2, §1

T3 sequence (P02769 25-607 limits assumed): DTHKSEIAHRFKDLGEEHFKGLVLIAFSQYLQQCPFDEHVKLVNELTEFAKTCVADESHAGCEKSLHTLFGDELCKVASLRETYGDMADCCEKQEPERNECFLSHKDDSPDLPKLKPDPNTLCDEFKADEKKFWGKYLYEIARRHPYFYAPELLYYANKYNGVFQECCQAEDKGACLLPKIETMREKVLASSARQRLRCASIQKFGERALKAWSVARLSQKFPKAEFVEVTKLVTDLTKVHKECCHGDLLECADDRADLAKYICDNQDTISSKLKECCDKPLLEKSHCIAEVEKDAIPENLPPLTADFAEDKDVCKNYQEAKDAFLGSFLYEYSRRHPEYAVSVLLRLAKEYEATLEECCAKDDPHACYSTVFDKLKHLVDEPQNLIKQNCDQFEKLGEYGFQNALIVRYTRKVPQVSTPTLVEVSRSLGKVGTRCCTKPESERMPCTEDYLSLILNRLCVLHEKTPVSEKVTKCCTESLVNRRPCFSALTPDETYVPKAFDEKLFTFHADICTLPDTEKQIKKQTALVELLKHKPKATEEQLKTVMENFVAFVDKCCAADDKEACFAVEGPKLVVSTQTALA

| Binder | % inhibition of hTFPI activity [1] [%] | dPT in hemoA plasma [1] [s] | Kd [2] [nM] | Kd [3] [nM] | binding result (BSA) | EC50 [4] [nM] | EC50 [5] [nM] |
| --- | --- | --- | --- | --- | --- | --- | --- |
| TP-2A8 Fab (Fab, V domains shown, Human Fab from HuCal Gold, expressed in E. coli TG1; also called Fab-2A8) VH: QVQLVESGGGLVQPGGSLRLSCAASGFTFRSYGMSWVRQAPGKGLEWVSSIRGSSSSTYYADSVKGRFTISRDNSKNTLYLQMNSLRAEDTAVYYCARKYRYWFDYWGQGTLVTVSS VL: DIELTQPPSVSVAPGQTARISCSGDNLRNYYAHWYQQKPGQAPVVVIYYDNNRPSGIPERFSGSNSGNTATLTISGTQAEDEADYYCQSWDDGVPVFGGGTKLTVLG | 100 | 57.9 | 1.25 | 3.08 | no binding | 0.09 | 0.06 |
| TP-2B3 Fab (Fab, V domains shown, Human Fab from HuCal Gold, expressed in E. coli TG1) VH: QVQLQQSGPGLVKPSQTLSLTCAISGDSVSSNSAAWGWIRQSPGRGLEWLGMIYYRSKWYNSYAVSVKSRITINPDTSKNQFSLQLNSVTPEDTAVYYCARTMSKYGGPGMDVWGQGTLVTVSS VL: DIVLTQSPATLSLSPGERATLSCRASQNIGSNYLAWYQQKPGQAPRLLIYGASTRATGVPARFNGSGSGTDFTLTISSLEPEDFAVYYCQQLNSIPVTFGQGTKVEIKR | 100 | 74 | 7.4 | 27 | no binding | 0.84 | 20.2 |
| TP-2E5 Fab (Fab, V domains shown, Human Fab from HuCal Gold, expressed in E. coli TG1) VH: QVQLQQSGPGLVKPSQTLSLTCAISGDSVSSNSAAWSWIRQSPGRGLEWLGMIFYRSKWNNDYAVSVKSRITINPDTSKNQFSLQLNSVTPEDTAVYYCARVNANGYYAYVDLWGQGTLVTVSS VL: DIQMTQSPSSLSASVGDRVTITCRASQPIYNSLSWYQQKPGKAPKLLIYGVSNLQSGVPSRFSGSGSGTDFTLTISSLQPEDFAVYYCLQVDNLPITFGQGTKVEIKR | 0 | 79 | 115 | 25.2 | no binding | 792 | 202 |
| TP-2G5 Fab (Fab, V domains shown, Human Fab from HuCal Gold, expressed in E. coli TG1) VH: QVQLQQSGPGLVKPSQTLSLTCAISGDSVSSNSAAWSWIRQSPGRGLEWLGFIYYRSKWYNDYAVSVKSRITINPDTSKNQFSLQLNSVTPEDTAVYYCARHNPDLGFDYWGQGTLVTVSS VL: not shown | 36 | 73.2 | 42.1 | 16.1 | no binding | 343 | 871 |
| TP-2A5.1 Fab (Fab, V domains shown, Human Fab from HuCal Gold, expressed in E. coli TG1) VH: QVQLVESGGGLVQPGGSLRLSCAASGFTFSSYGSWVRQAPGKGLEWVSVISGSGSSTYYADSVKGRFTISRDNSKNTLYLQMNSLRAEDTAVYYCARVNISTHFDVWGQGTLVTVSS VL: DIELTQPPSVSVAPGQTARISCSGDNIPEKYVHWYQQKPGQAPVLVIHGDNNRPSGIPERFSGSNSGNTATLTISGTQAEDEADYYCQSFDAGSYFVFGGGTKLTVLG | 30 | 70.8 | 35.4 | 19.6 | no binding | 28.6 | 14.5 |
| TP-3G3 Fab (Fab, V domains shown, Human Fab from HuCal Gold, expressed in E. coli TG1) VH: QVQLVESGGGLVQPGGSLRLSCAASGFTFSSYSMSWVRQAPGKGLEWVSSISSSSSNTYYGDSVKGRFTISRDNSKNTLYLQMNSLRAEDTAVYYCARMHYKGMDIWGQGTLVTVSS VL: DIQMTQSPSSLSASVGDRVTITCRASQNIHSHLNWYQQKPGKAPKLLIYDASSLQSGVPSRFSGSGSGTDFTLTISSLQPEDFAVYYCQQYYDYPLTFGQGTKVEIKR | 15 | 70.7 | 16 | 25.7 | no binding | 33.6 | 47.1 |

The remaining binders from weak to strong by Kd [2], led by results:

| % inhibition of hTFPI activity [1] [%] | dPT in hemoA plasma [1] [s] | Kd [2] [nM] | Kd [3] [nM] | binding result (BSA) | EC50 [4] [nM] | EC50 [5] [nM] | Binder |
| --- | --- | --- | --- | --- | --- | --- | --- |
| 92 | 68.9 | 17.1 | 28.5 | no binding | 59 | 957 | TP-3C2 Fab (Fab, V domains shown, Human Fab from HuCal Gold, expressed in E. coli TG1) VH: QVQLQQSGPGLVKPSQTLSLTCAISGDSVSSSSAAWSWIRQSPGRGLEWLGMIYYRSKWYNHYAVSVKSRITINPDTSKNQFSLQLNSVTPEDTAVYYCARGGSGVMDVWGQGTLVTVSS VL: DIQMTQSPSSLSASVGDRVTITCRASQSITNYLNWYQQKPGKAPKLLIYDVSNLQSGVPSRFSGSGSGTDFTLTISSLQPEDFAVYYCQQYSGYPLTFGQGTKVEIKR |
| 25 | 69.1 | 14.1 | 20.4 | no binding | 35.8 | 34.6 | TP-3B4 Fab (Fab, V domains shown, Human Fab from HuCal Gold, expressed in E. coli TG1) VH: QVQLQQSGPGLVKPSQTLSLTCAISGDSVSSNGAAWGWIRQSPGRGLEWLGHIYYRSKWYNSYAVSVKSRITINPDTSKNQFSLQLNSVTPEDTAVYYCARWGGIHDGDIYFDYWGQGTLVTVSS VL: DIQMTQSPSSLSASVGDRVTITCRASQNISNYLNWYQQKPGKAPKLLIYGTSSLQSGVPSRFSGSGSGTDFTLTISSLQPEDFAVYYCQQYGNNPTTFGQGTKVEIKR |
| 63 | 79.5 | 10.2 | 11.5 | no binding | 2.18 | 32.4 | TP-2H10 Fab (Fab, V domains shown, Human Fab from HuCal Gold, expressed in E. coli TG1) VH: QVQLQQSGPGLVKPSQTLSLTCAISGDSVSSNGAAWGWIRQSPGRGLEWLGFIYRRSKWYNSYAVSVKSRITINPDTSKNQFSLQLNSVTPEDTAVYYCARQDGMGGMDSWGQGTLVTVSS VL: not shown |
| 23 | 70.9 | 6.57 | 29.8 | no binding | 0.62 | 1040 | TP-2A2 Fab (Fab, V domains shown, Human Fab from HuCal Gold, expressed in E. coli TG1) VH: QVQLVESGGGLVQPGGSLRLSCAASGFTFSNNAMNWVRQAPGKGLEWVSTISYDGSNTYYADSVKGRFTISRDNSKNTLYLQMNSLRAEDTAVYYCARQAGGWTYSYTDVWGQGTLVTVSS VL: DIELTQPPSVSVAPGQTARISCSGDNIRTYYVHWYQQKPGQAPVVVIYGDSKRPSGIPERFSGSNSGNTATLTISGTQAEDEADYYCQSYDSEADSEVFGGGTKLTVLG |
| 86 | 62.8 | 5.06 | 46.1 | no binding | 0.48 | 5.18 | TP-2G6 Fab (Fab, V domains shown, Human Fab from HuCal Gold, expressed in E. coli TG1) VH: QVQLQQSGPGLVKPSQTLSLTCAISGDSVSSSSAAWSWIRQSPGRGLEWLGIIYYRSKWYNDYAVSVKSRITINPDTSKNQFSLQLNSVTPEDTAVYYCARHSMVGFDVWGQGTLVTVSS VL: DIVLTQSPATLSLSPGERATLSCRASQYVTSSYLAWYQQKPGQAPRLLIYGSSRATGVPARFSGSGSGTDFTLTISSLEPEDFATYYCQQYSSSPITFGQGTKVEIKR |
